From patent US20040224408A1, “THAP proteins as nuclear receptors for chemokines and roles in transcriptional regulation, cell proliferation and cell differentiation” (published 2004)

Target: T1, THAP1 THAP domain (Homo sapiens, UniProt Q9NVV9 SEQ:1-90)
T1 sequence: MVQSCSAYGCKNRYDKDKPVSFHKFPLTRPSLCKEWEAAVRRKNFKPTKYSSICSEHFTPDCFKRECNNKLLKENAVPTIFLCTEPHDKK
Experiment: EMSA; also no competition at 50-250x molar excess
Conditions: tags: C-terminal His6 (pET-21c); label: 32P
Experimental: To confirm that the THAP domain is a novel sequence specific DNA-binding domain, electrophoretic mobility shift assays (EMSA) were carried out using wild-type or mutant THAP domain responsive elements (THRE) determined by SELEX (see Example 28 and FIGS. 18 and 24). Double-stranded probes used in EMSA experiments were purified on 12% polyacrylamide gels, ³²P end labeled with T4 polynucleotide kinase and quantified by Cerenkov counting. About 20 ng of purified THAP domain from human THAP1 (prepared as described in Example 28) was incubated with 30000 cpm of the appropriate probe (about 2 ng). Binding reactions were carried out for 10 minutes at room temperature in 20 μl binding buffer (20 mM Tris-HCl pH 7.5, 100 mM KCl, 0.1% NP-40, 100 μg/ml BSA, 2.5 mM DTT, 5% glycerol, 200 ng poly (dI-dC)). Electrophoresis was performed on 8% (29:1) polyacrylamide gels containing 5% glycerol. Gels were run in 0.25×TBE at 150V and 4° C., dried and exposed on a phosphoimager screen (Molecular Dynamics). […]

B1: 3mut1 (dsDNA)
DNA 1: AGCAAGTAATTTCAAACTACTTCAT
DNA 2: ATGAAGTAGTTTGAAATTACTTGCT
- binding result: no binding
